For test [1], the target named is T1, human FcγRI, full length on stably transfected CHO cells (human, UniProt P12314 16-374).
T1 construct: whole, on cells; also called CD64; Fcγ receptor I
The test can be described thus: cell-based competition binding, flow cytometry (LSRII): serial dilutions of unlabelled competitor against 50 nM Alexa Fluor 488-labelled h1F6 IgG1 on CHO cells expressing human FcγRI. On the procedure: (§1) Labeled cells were detected using an LSRII FACS analyzer.
(§2) Binding of humanized anti-CD70 (h1F6) antibody to CHO cells expressing full-length FcγRI was determined by competition binding. […] Labeled cells were detected using an LSRII FACS analyzer.
In general terms: In flow cytometry, cells or beads pass a laser one at a time.

Test [2] has as its target T2, human FcγRIIIa, 158V (high affinity), full length on stably transfected CHO cells (human, UniProt P08637 17-254).
T2 construct: whole, on cells; CHO DG44 line '158V'; also called CD16
The test can be described thus: cell-based competition binding, flow cytometry (LSRII): serial dilutions of unlabelled competitor against 100 nM Alexa Fluor 488-labelled h1F6 IgG1 on CHO cells expressing human FcγRIIIa 158V. How it is done: as §1
(§3) Binding of variant humanized anti-CD70 (h1F6) antibodies to CHO cells expressing full-length FcγRIIIa was also determined by competition binding. […] Labeled cells were detected using an LSRII FACS analyzer.

Test [3] deals with T3, human CD70 on CD70 positive cell lines (human, UniProt P32970 1-193).
T3 construct: whole, on cells
T3 sequence (looked up): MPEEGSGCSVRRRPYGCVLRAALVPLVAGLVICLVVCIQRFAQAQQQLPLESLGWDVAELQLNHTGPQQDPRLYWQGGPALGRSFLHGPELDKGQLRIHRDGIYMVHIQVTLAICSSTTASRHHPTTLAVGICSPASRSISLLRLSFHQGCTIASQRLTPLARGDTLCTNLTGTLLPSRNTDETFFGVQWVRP
The test can be described thus: 786-O cell binding, apparent KD of the IgG.

In test [4] the target is T4, mouse CD70 (the corresponding antigen from mice) (mouse, UniProt O55237 45-195, limits assumed).
T4 construct: Named only as 'the corresponding antigen from mice'
T4 sequence (looked up): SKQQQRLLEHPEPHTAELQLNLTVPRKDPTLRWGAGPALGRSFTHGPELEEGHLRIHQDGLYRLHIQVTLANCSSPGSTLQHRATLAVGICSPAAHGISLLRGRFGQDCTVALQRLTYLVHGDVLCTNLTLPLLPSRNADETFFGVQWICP
Put plainly: not described (statement in the example on maximum tolerated dose).

Test [5] concerns the target T3, human CD70 on CD70 positive cell lines. Put plainly: saturation binding of europium-labelled antibody to CD70+ ACHN cells (apparent KD). The source says: (§4) Humanized 1F6 antibody derivatives HDLA (hVHD and hVLA), HHLA (hVHH and hVLA), and HJLA (hVHJ and hVLA), and c1F6 were transiently expressed in 293 cells, labeled with europium using the Eu-N1 iodoacetamido chelate (Perkin Elmer), and analyzed for saturation binding to a panel of CD70 positive cell lines as described in detail in U.S. Patent Application No. 60/673,070, filed Apr. 19, 2005; and PCT International Publication No. WO 2006/113909.

For test [6] the target is unchanged. The test can be described thus: saturation binding of europium-labelled antibody to CD70+ 786-O cells (apparent KD).
Excerpt: as §4

For test [7] the target is unchanged. Put plainly: saturation binding of europium-labelled antibody to CD70+ Caki-1 cells (apparent KD).
Excerpt: as §4

Test [8] has the same target. Put plainly: saturation binding of europium-labelled antibody to CD70+ Caki-2 cells (apparent KD).
Excerpt: as §4

For test [9], the target named is T1, human FcγRI, full length on stably …. The test can be described thus: cell-based competition binding on CHO cells expressing full-length FcγRI, 'performed as described previously' (50 nM Alexa Fluor 488-labelled h1F6 IgG1). How it is done: as §2
(§5) Binding of one of the variants, IgG1 S239C, to CHO cells expressing full-length FcγRIIIa and FcγRI was determined as described above. […] The control, parent antibody h1F6, binds to FcγRIIIa-expressing cells and FcγRI-expressing cells.

Test [10] deals with T2, human FcγRIIIa, 158V (high affinity), …. The test can be described thus: cell-based competition binding on CHO cells expressing full-length FcγRIIIa, 'performed as described previously' (158V line, 100 nM Alexa Fluor 488-labelled h1F6 IgG1); the sheet says only FcγRIIIA. On the procedure: as §3, §5

T2 sequence (P08637 17-254 F176V): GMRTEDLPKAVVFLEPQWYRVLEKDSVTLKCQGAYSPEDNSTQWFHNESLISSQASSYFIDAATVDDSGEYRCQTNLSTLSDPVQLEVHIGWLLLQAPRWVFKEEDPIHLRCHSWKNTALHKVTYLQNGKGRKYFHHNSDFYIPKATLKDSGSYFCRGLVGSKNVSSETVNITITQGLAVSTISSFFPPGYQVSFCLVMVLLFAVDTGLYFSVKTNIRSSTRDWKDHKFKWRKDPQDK
T1 sequence (P12314 16-374): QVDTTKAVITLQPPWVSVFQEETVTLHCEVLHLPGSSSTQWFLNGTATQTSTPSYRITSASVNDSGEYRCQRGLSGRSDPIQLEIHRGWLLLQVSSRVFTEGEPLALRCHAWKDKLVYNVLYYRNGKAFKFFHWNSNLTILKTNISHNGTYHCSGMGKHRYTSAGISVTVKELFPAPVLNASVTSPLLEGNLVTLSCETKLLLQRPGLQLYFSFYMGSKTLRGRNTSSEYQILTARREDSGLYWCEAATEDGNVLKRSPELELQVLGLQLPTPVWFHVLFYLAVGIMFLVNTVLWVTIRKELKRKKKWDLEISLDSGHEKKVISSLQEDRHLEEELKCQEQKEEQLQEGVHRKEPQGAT

B1: h1F6 IgG1 vcMMAF(4) antibody drug conjugate (antibody)
heavy: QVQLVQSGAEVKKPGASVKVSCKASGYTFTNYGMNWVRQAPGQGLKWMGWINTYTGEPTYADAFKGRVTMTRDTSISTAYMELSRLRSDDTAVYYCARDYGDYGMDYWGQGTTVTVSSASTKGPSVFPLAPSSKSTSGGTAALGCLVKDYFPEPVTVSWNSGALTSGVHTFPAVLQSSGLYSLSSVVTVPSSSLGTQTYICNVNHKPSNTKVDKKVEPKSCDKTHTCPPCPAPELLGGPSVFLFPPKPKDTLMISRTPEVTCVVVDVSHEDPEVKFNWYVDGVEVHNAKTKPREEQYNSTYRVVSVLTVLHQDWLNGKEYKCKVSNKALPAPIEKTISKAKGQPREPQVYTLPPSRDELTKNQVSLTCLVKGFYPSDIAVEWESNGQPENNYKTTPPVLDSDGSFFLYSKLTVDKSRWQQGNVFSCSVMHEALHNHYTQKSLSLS
light: DIVMTQSPDSLAVSLGERATINCRASKSVSTSGYSFMHWYQQKPGQPPKLLIYLASNLESGVPDRFSGSGSGTDFTLTISSLQAEDVAVYYCQHSREVPWTFGQGTKVEIKRTVAAPSVFIFPPSDEQLKSGTASVVCLLNNFYPREAKVQWKVDNALQSGNSQESVTEQDSKDSTYSLSSTLTLSKADYEKHKVYACEVTHQGLSSPVTKSFNRGEC
modifications: vcMMAF conjugated, mean loading of 4 drugs/antibody; attachment residues not stated
notes: also called h1F6 G1-vcMMAF(4); IgG1-F4
For B1, the binding result in test [1] and in [2] was “binds” in each case.

B2: humanized 1F6 antibody derivative HJLA (hVHJ and hVLA), human IgG1 (antibody)
heavy: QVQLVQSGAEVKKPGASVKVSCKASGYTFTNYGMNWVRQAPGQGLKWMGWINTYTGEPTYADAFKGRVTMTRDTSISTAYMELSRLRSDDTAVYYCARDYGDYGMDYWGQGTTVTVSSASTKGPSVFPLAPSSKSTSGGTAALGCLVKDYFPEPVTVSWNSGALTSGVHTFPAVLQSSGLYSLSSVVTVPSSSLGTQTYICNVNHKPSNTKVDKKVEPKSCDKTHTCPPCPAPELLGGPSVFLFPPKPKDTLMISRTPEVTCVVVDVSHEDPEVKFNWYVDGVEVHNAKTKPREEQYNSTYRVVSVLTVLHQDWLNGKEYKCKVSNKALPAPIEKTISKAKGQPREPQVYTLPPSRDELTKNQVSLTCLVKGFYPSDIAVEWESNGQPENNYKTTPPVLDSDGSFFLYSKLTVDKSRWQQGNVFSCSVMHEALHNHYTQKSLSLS
light: B1 light
notes: also called h1F6 HJLA; h1F6 IgG1
As to B2, the Kd in test [3] came to 0.6 nM; in test [5], 0.68 nM; in [6] it was 0.46 nM; in test [7] it was 1.36 nM; in [8], 0.37 nM. Moreover, the binding result in test [4] was “no binding”. The figures for the “IC50 (read off the curve)” value in test [9] and in test [10] were roughly 6 nM and roughly 200 nM, respectively.

The values are drawn from patent publication US20240084031A1 (Seagen, published 2024).
